The source of these data is paper PMC10980035 (bioRxiv, 2024).

The target in assay [1] is T1, Retriever complex (VPS35L, VPS26C, VPS29) (human, UniProt Q7Z3J2 1-963; O14972 1-297; Q9UBQ0-2 1-186). Nature of the assay: pull-down.
For assay [2], the target named is T1, Retriever complex (VPS35L, VPS26C, …). Nature of the assay: pull-down. This is another data set of the same source.

T1 sequence (Q7Z3J2 whole entry, chain 1 of 2): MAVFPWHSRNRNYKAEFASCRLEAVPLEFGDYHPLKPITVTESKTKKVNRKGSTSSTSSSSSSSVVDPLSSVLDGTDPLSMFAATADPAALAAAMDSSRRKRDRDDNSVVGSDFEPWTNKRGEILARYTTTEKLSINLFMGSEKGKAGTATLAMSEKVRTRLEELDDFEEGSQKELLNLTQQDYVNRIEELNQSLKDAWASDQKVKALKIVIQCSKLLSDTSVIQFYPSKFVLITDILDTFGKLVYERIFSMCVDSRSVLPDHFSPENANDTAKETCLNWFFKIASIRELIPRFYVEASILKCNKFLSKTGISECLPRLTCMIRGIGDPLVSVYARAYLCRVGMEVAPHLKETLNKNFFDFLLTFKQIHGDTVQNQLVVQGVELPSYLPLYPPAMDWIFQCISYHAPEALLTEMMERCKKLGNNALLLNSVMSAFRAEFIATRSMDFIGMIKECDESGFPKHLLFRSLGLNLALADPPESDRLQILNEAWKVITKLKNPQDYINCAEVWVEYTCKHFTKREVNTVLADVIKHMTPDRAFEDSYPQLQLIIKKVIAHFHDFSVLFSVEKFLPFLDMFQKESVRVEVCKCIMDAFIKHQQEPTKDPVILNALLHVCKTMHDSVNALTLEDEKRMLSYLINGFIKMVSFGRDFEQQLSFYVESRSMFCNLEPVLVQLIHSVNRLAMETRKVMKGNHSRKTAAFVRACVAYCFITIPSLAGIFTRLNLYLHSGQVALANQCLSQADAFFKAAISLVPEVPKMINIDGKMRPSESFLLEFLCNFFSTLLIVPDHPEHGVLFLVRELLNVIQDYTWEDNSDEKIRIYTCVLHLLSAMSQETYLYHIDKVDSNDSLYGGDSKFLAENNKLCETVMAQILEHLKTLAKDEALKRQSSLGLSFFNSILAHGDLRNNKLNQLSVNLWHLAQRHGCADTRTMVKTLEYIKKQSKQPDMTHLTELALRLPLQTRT
T1 sequence (O14972 whole entry, chain 2 of 2): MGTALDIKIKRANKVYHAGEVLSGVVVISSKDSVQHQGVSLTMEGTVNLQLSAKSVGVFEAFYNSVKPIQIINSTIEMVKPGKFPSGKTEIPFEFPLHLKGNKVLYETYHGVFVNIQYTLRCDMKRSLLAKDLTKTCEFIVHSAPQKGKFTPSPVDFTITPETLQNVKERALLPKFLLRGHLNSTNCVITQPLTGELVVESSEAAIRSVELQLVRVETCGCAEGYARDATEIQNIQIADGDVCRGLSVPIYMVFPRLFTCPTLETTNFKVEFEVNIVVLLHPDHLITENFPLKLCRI

As to ASASDVHGNFAFEGIGDEDL [GST-SNX17 CT (GST-tagged tail peptide, last 20 residues of SNX17)], the dissociation constant Kd in assay [1] is ~110 nM. As to SVYLVNFRCCRSHDLCNEDL [GST-tagged CT acidic tail of PATE1 (last 20 amino acids)], the binding result in assay [2] is “binds”. The same measure, in the same setting: in the case of SKIKIAKDDCVFGNIKEEDL [GST-tagged CT acidic tail of SNX31 (last 20 amino acids)] it was “binds”.
